Experimental data reported in paper PMC12714728 (npj Viruses, 2025).
Positions of bridges follow the written chain, without caps; N, C: chain ends. No end group written: not given here.

B1: cyclic peptide CP8 (peptide)
peptide: CLYRDPLGVAGGMGC
modifications: not fully specified (bridges); cysteine pairing not given here
notes: source: synthetic peptide (manual solid phase Fmoc chemistry, iodine oxidation, RP-HPLC)
B2: cyclic peptide CP11 (peptide)
peptide: CYRDPLGVAGGMC
modifications: disulfide 1-13
notes: as for B1
B3: cyclic peptide CP13 (peptide)
peptide: CYRDPLGVAGEMC
modifications: not fully specified; cysteine pairing not given here
B4: cyclic peptide CP14 (peptide)
peptide: LYEDPLGVAGGMG
modifications: head-to-tail lactam cyclized (no template)
notes: source: synthetic peptide (manual solid phase Fmoc chemistry, RP-HPLC)

Biological target: H1/Bri HA, A/Brisbane/59/07 (H1N1) hemagglutinin, C-terminally biotinylated, for the CCI assay (influenza A virus A/Brisbane/59/07 …, C-terminal biotin)
Assay: cell-based or functional assay

Binder	conformational change inhibition assay (CCI) IC50 [µM]
B1	0.54
B2	8.52
B3	39.4
B4	1.24
